What is called Kd is the concentration at which binding is half-saturated.

Data on 5 molecules can be found in article PMC12700547, “Auranofin attenuates TOPBP1-mediated ATR replication stress response and improves chemotherapeutic response in breast tumor models” (The Journal of Clinical Investigation, 2025).

Where no end group is shown, it is not given here. [ ]: non-standard residue; d: D form. pT = C[C@@H](OP(=O)(O)O)[C@H](N)C(=O)O

Assay [1] concerns the target auranofin. The assay can be described thus: BLI. Conditions: auranofin 25, 50, 100, 200 µM; n = 2; parent: 2.358E-5 M.
Assay [2] addresses T1, His-tagged recombinant TOPBP1 BRCT 7–8 (UniProt Q92547 1264-1493).
T1 construct: The cited crystal structures 7CMZ and 3AL3 hold BRCT 7–8; also called BRCT 7–8/WT; His-tagged BRCT 7–8; source: E coli cells, purified
The assay can be described thus: BLI; Octet RED96; biotin-peptides immobilized on biosensors; His-tagged BRCT 7–8 (1 μM) alone or preincubated with a serial dilution of compound (auranofin) as analyte; PBS with 0.1% BSA, 0.02% Tween-20, 1% DMSO; 2 minutes of dissociation; 1:1 binding model with local fit. Conditions: both partners purified.

T1 sequence (Q92547 1264-1493): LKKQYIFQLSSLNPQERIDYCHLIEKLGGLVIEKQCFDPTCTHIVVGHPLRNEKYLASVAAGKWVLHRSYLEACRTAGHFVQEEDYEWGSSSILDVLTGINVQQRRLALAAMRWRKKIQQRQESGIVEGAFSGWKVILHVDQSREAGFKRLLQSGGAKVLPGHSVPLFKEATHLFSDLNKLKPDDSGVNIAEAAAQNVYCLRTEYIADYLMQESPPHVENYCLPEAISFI

For the molecule “His-tagged recombinant TOPBP1 BRCT 7–8 (from UniProt Q92547) F1411A”, the Kd in assay [1] came out at 4.22 mM.

B1: biotin-APS peptide (acidic patch sequence of PHF8) (peptide)
peptide: GACFKDAEYIYPSLESDDDDPA
modifications: not fully specified (N-terminus); also: biotin, position not given here
notes: also called PHF8/APS peptide
In the case of B1, the binding result in assay [2] was “binds”.

B2: biotin-pFANCJ peptide (phosphorylated Thr1133 containing peptide of FANCJ) (peptide)
peptide: EAEDESIYF[pT]PELYDPEDT
modifications: not fully specified (N-terminus); printed as EAEDESIYF(pT)PELYDPEDT; also: biotin (site not given here)
notes: also called phosphorylated FANCJ peptide
Take B2: the binding result in assay [2] is given as “binds”.

B3: biotin-F1071 peptide (F1071-containing peptide of the TOPBP1 AAD) (peptide)
peptide: TLEMRENFQKQLQEI
modifications: not fully specified (N-terminus); printed as TLEMRENF_1071_QKQLQEI; also: biotin, position not given here
B3: the binding result in assay [2] is given as “binds”.

B4: biotin-Y989 peptide (Y989-containing peptide of the TOPBP1 AAD) (peptide)
peptide: ECKHLPESLYPHTYN
modifications: not fully specified (N-terminus); printed as ECKHLPESLY_989_PHTYN; also: biotin, position not given here
For B4, in assay [2], the binding result was “binds”.
